Assay results as given in patent US20250043290A1, “RNA SEQUENCES THAT INDUCE FLUORESCENCE OF SMALL MOLECULE FLUOROPHORES, MOLECULAR COMPLEXES, SENSORS, AND METHODS OF USE THEREOF” (CORNELL UNIVERSITY, priority 2021, published 2025).

How the values were obtained:
[1] = Dissociation constant of RNA-fluorophore complex, titration with DFHO; assay type: binding; details: 50 nM RNA, one-site saturation model
Source text: FIG. 2A is a schematic showing the secondary structure of Squash as predicted by mFOLD (Squash: 5′-GGCUACAAGGUGAGCCCAAUAAUACGGUUUGGGUUAGGAUAGGAAGUAGAGCCGUAAACUCUCUAAGCGGUAGUC-3′ (SEQ ID NO:1)). Squash retained the main structural elements of add A-riboswitch aptamer including a 3-way junction and predicted kissing loop interactions (residues at positions 30, 31, 56, and 57, solid gray line). An additional base pair in the kissing loop between loop L2 and L3 (residues at positions 29 and 58, dotted gray line) improved fluorescence activation. […] Shown are the excitation (Ex) and emission (Em) spectra of Squash bound to DFHBI-1T and DFHO (structures shown in inset). Spectra were measured using 20 μM RNA and 2 μM of the indicated fluorogenic dye. […] Fluorescence activation was measured by incubating 200 nM dye and 10 μM RNA. By using a large excess of RNA compared to the fluorophore, it was ensured that the fluorescence observed is from 200 nM RNA-fluorophore complex. Data represent mean values±s.d. for n=3 independent experiments. The values inside the bars indicate fold activation. AU, arbitrary units. […] FIG. 2E is a bar graph showing the results of an experiment in which Squash-DFHO fluorescence was measured in buffers containing exclusively the indicated cations. […]

In vitro folding of RNAs = assay type: physicochemical; details: 40 mM HEPES-KOH (pH 7.4), 100 mM KCl, 0.5 mM MgCl2
Method: Briefly, the fluorescence intensities of two solutions were compared: one having excess fluorophore and limiting RNA, and the other with excess RNA and limiting fluorophore. This allows calculation of the percent of the aptamer that is folded. For these experiments, 0.2 μM of fluorophore (or RNA) and 10 μM of RNA (or fluorophore) was used. The signal from the limiting RNA condition was divided by the signal from the limiting fluorophore condition to determine the fraction folded.
To prepare this complex, 10 μM Squash is incubated with 0.2 μM DFHO. By having large excess of Squash, there is likely to be enough folded Squash to form 0.2 μM Squash-DFHO complex. Next, 0.2 μM Squash is incubated with excess (10 μM) DFHO.

[2] = Fluorescence activation of DFHO by aptamers in vitro; assay type: biochemical
Source text: FIG. 2A is a schematic showing the secondary structure of Squash as predicted by mFOLD (Squash: 5′-GGCUACAAGGUGAGCCCAAUAAUACGGUUUGGGUUAGGAUAGGAAGUAGAGCCGUAAACUCUCUAAGCGGUAGUC-3′ (SEQ ID NO:1)). Squash retained the main structural elements of add A-riboswitch aptamer including a 3-way junction and predicted kissing loop interactions (residues at positions 30, 31, 56, and 57, solid gray line). An additional base pair in the kissing loop between loop L2 and L3 (residues at positions 29 and 58, dotted gray line) improved fluorescence activation. […] Shown are the excitation (Ex) and emission (Em) spectra of Squash bound to DFHBI-1T and DFHO (structures shown in inset). Spectra were measured using 20 μM RNA and 2 μM of the indicated fluorogenic dye. […] Fluorescence activation was measured by incubating 200 nM dye and 10 μM RNA. By using a large excess of RNA compared to the fluorophore, it was ensured that the fluorescence observed is from 200 nM RNA-fluorophore complex. Data represent mean values±s.d. for n=3 independent experiments. The values inside the bars indicate fold activation. AU, arbitrary units. FIG. 2D is a graph showing the dissociation constant (Kd) between Squash and DFHO as measured by titration of 50 nM Squash with increasing concentration of DFHO, and fitted using a one-site saturation model. […] FIG. 2E is a bar graph showing the results of an experiment in which Squash-DFHO fluorescence was measured in buffers containing exclusively the indicated cations. […] Similar to the parental add A-riboswitch aptamer (see Lemay et al., “Folding of the Adenine Riboswitch,” Chem. Biol. 13:857-868 (2006), which is hereby incorporated by reference in its entirety), Squash-DFHO has a low magnesium requirement for fluorescence activation. […]
FIG. 6A is a bar graph showing fluorescence activation of DFHO by Squash and its precursors. Fluorescence was measured with 200 nM dye and 10 μM RNA (ex: 495 nm, em: 562 nm, except for Corn; ex: 505 nm, em: 545 nm). […] FIG. 6B is a bar graph showing fluorescence of initial hits after Round 7 of SELEX. In vitro transcribed RNAs from each hit (1 μM final) were mixed with DFHBI-1T (10 μM final) and the fluorescence was measured (ex: 452 nm, em: 503 nm, except for Broccoli; ex: 472 nm, em: 507 nm). […] FIGS. 6C-6D are bar graphs showing fluorescence measurements of the hits with DFHBI-1T after first (FIG. 6C) and second (FIG. 6D) round of directed evolution, measured as in FIG. 6B. […] FIG. 6E is a bar graph showing fluorescence measurements of hits using DFHO after the second round of directed evolution measured as in FIG. 6A. The fluorescence of the hits were normalized against Corn. […] FIG. 6F is a graph showing normalized fluorescence. […] Fluorescence was measured as in FIG. 6A. […]

B1: Squash: fluorogenic RNA aptamer evolved from the add A-riboswitch aptamer, binds DFHBI-1T and DFHO; SEQ ID NO: 12 (SEQ ID NO: 1) (nucleic acid)
chain: AGGUGAGCCCAAUAAUACGGUUUGGGUUAGGAUAGGAAGUAGAGCCGUAAACUCUCUAAGCG
modifications: RNA, backbone not given here
Kd [1]: 54 nM
% folded in vitro (In vitro folding of RNAs): approximately 80%
Fold activation of DFHO fluorescence [2]: 550 fold
Activation of DFHO compared to Corn ([2]; 200 nM dye and 10 μM RNA): > 2 fold
Fluorescence intensity with DFHO compared to Corn ([2]; 10 μM RNA, 1 μM DFHO): more than two-fold higher
